# According to the supplement of paper PMC10724198:
# ± gives the standard deviation of the averaged measurements.
# Assays:
# Saccharomyces cerevisiae [1] = test: protein stability index of tFT-peptide fusion (C-terminal peptide) (PSI (0-1 scale)); higher = more stable (slower turnover)
# Description: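 MPS profiling in S. cerevisiae of the tFT-X12 degron library: putative degron peptides plus stable controls, 12 aa, fused to the C-terminus of a sfGFP-mCherry timer. Cells are FACS-sorted into 8 mCherry/sfGFP bins and deep-sequenced. PSI runs from 0 (unstable) to 1 (stable). Backgrounds are wild type, das1Δ and doa10Δ at 30 °C, and wild type, das1Δ, cdc34-1 and cdc53-1 at 37 °C; 2-3 technical replicates each.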
# Saccharomyces cerevisiae [2] = test: as above; conditions: genetic background: wild type; temperature: 30 C
# [3] = genetic background: cdc34-1, temperature: 37 C
# [4] = genetic background: cdc53-1, temperature: 37 C
# [5] = genetic background: das1 deletion, temperature: 30 C
# [6] = genetic background: das1 deletion, temperature: 37 C
# [7] = genetic background: doa10 deletion, temperature: 30 C
# [8] = genetic background: wild type, temperature: 30 C
# [9] = genetic background: wild type, temperature: 37 C
# 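Also: PSI is a weighted mean of sequencing reads over stability bins, variants kept only with over 10 reads, mCherry proximal and sfGFP distal, peptide attached via GGGS linker.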
Sequence,protein stability index (Saccharomyces cerevisiae [1]; [3]),protein stability index (Saccharomyces cerevisiae [1]; [4]),protein stability index (Saccharomyces cerevisiae [1]; [5]),protein stability index (Saccharomyces cerevisiae [1]; [6]),protein stability index (Saccharomyces cerevisiae [1]; [7]),protein stability index (Saccharomyces cerevisiae [1]; [8]),protein stability index (Saccharomyces cerevisiae [1]; [9]),protein stability index (Saccharomyces cerevisiae [2])
AGMIKLRKKKVL,0.6487 ± 0.003,0.7395 ± 0.003,0.634 ± 0.021,0.7208 ± 0.0012,0.208 ± 0.026,0.248 ± 0.041,0.452 ± 0.0093,0.417 ± 0.042
CIEIDHVIVAIC,0.464 ± 0.019,0.527 ± 0.062,0.348 ± 0.035,0.563 ± 0.03,0.265 ± 0.0061,0.334 ± 0.015,0.492 ± 0.018,0.446 ± 0.021
GEWCLPLRLVVY,0.061 ± 0.013,0.0685 ± 0.024,0.185 ± 0.021,0.201 ± 0.011,0.137 ± 0.01,0.172 ± 0.02,0.174 ± 0.012,0.22 ± 0.043
FLLFLPLLFFFL,0.414 ± 0.037,0.396 ± 0.0095,0.396 ± 0.024,0.456 ± 0.013,0.4578 ± 0.0037,0.377 ± 0.018,0.4384 ± 0.0031,0.3904 ± 0.001
RFFLFVFFCFGF,0.384 ± 0.0046,0.387 ± 0.038,0.383 ± 0.034,0.4787 ± 0.0021,0.402 ± 0.0047,0.365 ± 0.045,0.437 ± 0.013,0.436 ± 0.014
PFYAYHFSLSVY,0.13 ± 0.006,0.164 ± 0.0048,0.103 ± 0.028,0.227 ± 0.015,0.0245 ± 0.0025,0.0234 ± 0.0066,0.0924 ± 0.0037,0.0344 ± 0.01
LVACLGYAVYCL,0.529 ± 0.042,0.557 ± 0.03,0.402 ± 0.024,0.573 ± 0.0087,0.369 ± 0.015,0.394 ± 0.017,0.5568 ± 0.0018,0.46 ± 0.012
GTLSSSLIKSCA,0.602 ± 0.036,0.616 ± 0.017,0.488 ± 0.027,0.637 ± 0.013,0.481 ± 0.01,0.499 ± 0.029,0.614 ± 0.0095,0.52 ± 0.057
YLTLAGFPLNLF,0.666 ± 0.014,0.7399 ± 0.0022,0.649 ± 0.017,0.762 ± 0.0092,0.273 ± 0.0065,0.314 ± 0.017,0.531 ± 0.011,0.469 ± 0.041
SFWLGVGIFFVG,0.544 ± 0.038,0.597 ± 0.022,0.434 ± 0.028,0.618 ± 0.028,0.405 ± 0.013,0.419 ± 0.023,0.559 ± 0.015,0.481 ± 0.021
FIFLFVALFCVF,0.31 ± 0.039,0.343 ± 0.0083,0.327 ± 0.017,0.404 ± 0.014,0.328 ± 0.012,0.29 ± 0.021,0.365 ± 0.036,0.353 ± 0.067
LPPSVLPLPPSH,0.647 ± 0.053,0.72 ± 0.013,0.658 ± 0.015,0.73 ± 0.024,0.6756 ± 0.0016,0.679 ± 0.033,0.752 ± 0.053,0.729 ± 0.021
SLCWSYVWVSCP,0.264 ± 0.035,0.302 ± 0.007,0.247 ± 0.024,0.375 ± 0.0093,0.21 ± 0.0079,0.241 ± 0.022,0.343 ± 0.0047,0.334 ± 0.018
GCVVVLIPVVSA,0.333 ± 0.014,0.338 ± 0.0038,0.249 ± 0.038,0.415 ± 0.0087,0.215 ± 0.0045,0.266 ± 0.015,0.381 ± 0.0088,0.382 ± 0.022
CSWMRSRMWVGG,0.33 ± 0.051,0.419 ± 0.03,0.422 ± 0.0063,0.36 ± 0.0087,0.454 ± 0.014,0.409 ± 0.013,0.346 ± 0.0053,0.3994 ± 0.0039
WGFLRVMVDIEL,0.146 ± 0.014,0.223 ± 0.1,0.198 ± 0.024,0.32581 ± 9.3e-05,0.164 ± 0.0075,0.188 ± 0.023,0.303 ± 0.017,0.252 ± 0.016
MCFFVFVLFLFC,0.307 ± 0.034,0.398 ± 0.12,0.281 ± 0.029,0.406 ± 0.013,0.2977 ± 0.0013,0.269 ± 0.033,0.377 ± 0.011,0.33 ± 0.015
